Assay results from patent US5008241A, “Novel insulin peptides” (Novo Nordisk A/S, priority 1985, dated 1991).

Legend:
[1] = Deamidation products formed on storage at 25° C., pH 3, DISC PAGE analysis; assay type: physicochemical; conditions: 0.24 mM analog, 3 Zn++ per hexamer
Description: Deamidation products formed per month after storage 25 at 25° C. and a pH value of 3.
The compositions tested were as follows: 0.24 mM insulin analog, 0.3% (w/v) m-cresol, 1.6% (w/v) glycerol, 3 Zn^++ per insulin hexamer and 0.01 M sodium acetate to obtain a pH value of 3. The determinations were made using DISC PAGE analysis.

[2] = Di- and polymerization products formed on storage at 25 C, HPSEC; assay type: physicochemical; conditions: 3 Zn++ per hexamer
Description: The compositions tested were as follows: 0.24 mM insulin analog, 0.3% /w/v) m-cresol, 1.6% (w/v) glycerol, 0.01 M sodium acetate and 3 Zn^++ per insulin hexamer. The determination was made using HPSEC (high performance size exclusion chromatography).
A reference insulin having Asn^A21 is included for comparison.

[3] = from Diabetes Care, Vol. 6/Supplement 1 (1983), 4; cited from earlier work

Row | Substance | Deamidation products formed per month [1] | Di- and polymerization products formed per month ([2]; pH of formulation 3.0, 0.24 mM analog) | Di- and polymerization products formed per month ([2]; pH of formulation 4.0, 0.24 mM analog) | Di- and polymerization products formed per month ([2]; pH of formulation 5.0, 0.24 mM analog) | established potency [3]
1 | Arg^B27 Thr^B30 --NH2 human insulin | approx. 10% | 0.15% | 0.62% | 1.4% | –
2 | monocomponent procine insulin: monocomponent porcine insulin | – | – | – | – | 28.5 U/mg dry substance
